According to paper PMC9995687:

Molecular target: Human STIM1, N-terminally ECFP-tagged, Q13586-1
Experiment: FRET microscopy (Eapp) in cells
Settings: read off a plot

response (+TG (1 μM), +UV, n = 8)	response (+TG (1 μM), -UV, n = 8)	response (-TG, +UV, n = 8)	response (-TG, -UV, n = 8)	response (+TG (1 μM), +UV, n = 9, parent: est. 0.11)	response (+TG (1 μM), -UV, n = 9, parent: est. 0.11)	response (-TG, +UV, n = 9, parent: est. 0.010)	response (-TG, -UV, n = 9, parent: est. 0.008)	Substance
0.11 Eapp	0.11 Eapp	0.01 Eapp	0.008 Eapp					Human Orai1 wild-type, C-terminally YFP-labelled (from UniProt Q96D31-1) A137Bpa
				0.004 Eapp	0.002 Eapp	0.003 Eapp	0.006 Eapp	Orai1 A137Bpa, C-terminally YFP-labelled (from UniProt Q96D31-1) L273D
